In patent publication US4851521A, “Esters of hyaluronic acid” (priority 1985, dated 1989):

How the values were obtained:
[1] = Absorption and bioavailability: plasma levels of hydrocortisone in rats; format: in vivo, male Sprague-Dawley rats; conditions: s.c.; for average plasmatic level of hydrocortisone: average of 4 values; for Ka: HYC 6.5 mg/kg
Method: Male Sprague-Dawley rats, with a body weight of 250-350 gr were used, obtained from Charles River-Calco (Como), fed ad libitum with water and compound feed in pellets, with the code name of 4RF 21, produced by "Italiana Mangimi", licensee of Charles River.
Hydrocortisone was administered in the form of sodium hemisuccinate salt at the dose of 1.34 mg/kg (corresponding to 1 mg/kg of hydrocortisone base) by general intravenous route and at the dose of 1.34 mg/kg and 2.68 mg/ kg (corresponding to 2 mg/ kg of hydrocortisone base) by subcutaneouos route (the i.v. route was considered in order to determine the pharmacokinetic parameters which serve as a comparison for the evaluation of absorption of any other administration route).
The three HYC derivatives were administered by subcutaneous route at the dose of 6.5 and 13 mg/kg (doses corresponding to about 1 and 2 mg/kg in hydrocortisone base). […] All the compounds were injected at a constant volume of 1 ml/kg.
After administration, 0.3 ml of blood was drawn from each animal by cardiac puncture in the presence of anticoagulant (sodium heparin).
Blood drawing times were as follows: *15 mins, 30 mins, 60 mins, 120 mins, 180 min, 300 mins, 360 mins, 420 mins, 480 mins (*limited to the intraveneous route).
The hydrocortisone was dosed by radioimmunoassay method (Cortisolo Kit, Biodata, cod. 10394) using iodate tracing. […] The linearity of the method comes between 1 and 1000 ng/ml. The observation limit is 1 ng/ml.
The dosage of the cortisolemia in the rat is not influenced either by the base levels or by the circadian rhythms of this hormone, as the metabolic pattern of the endogenous glucocorticoid hormones in the rat, leads to the production of corticosterone and not cortisol (see E. L. Green: Biology of the laboratory mouse.)
In Table 3 are reported the results of the average plasma levels of hydrocortisone, after i.v. and s.c. injection (1 and 2 mg/kg). […] In Table 4 are reported the pharmacokinetic parameters of cortisol calculated graphically from the plasmatic decline curves. In Table 3 are reported the average levels of cortisol after subcutaneous administration of the three HYC derivatives at doses of 6.5 and 13 mg/kg (corresponding to about 1 and 2 mg/kg in hydrocortisone base). In Table 4 are reported the pharmacokinetic parameters relative to cortisol calculated graphically with the method of residues from the plasma absorption curve of the three HYC products.

[2] = system: dextran-induced aseptic (exudative) phlogosis in rabbit eye; experiment: Anti-inflammatory activity: dextran-induced aseptic (exudative) phlogosis in rabbit eye; format: in vivo; conditions: for eyes without signs of phlogosis out of the total number of eyes treated: 3 drops every 6 hours, 4 treated eyes
Method: 9 hyaluronic esters of cortisone, hydrocortisone and fluorocortisone (9 fluorohydrocortisone) identified by the code names HYC1-HYC9 were tested. Table 1 describes these compounds and gives the percentages of the number of carboxylic groups of HY which are esterified with the above corticosteroids, and where applicable the percentage esterified with simple aliphatic alcohols and those salified with alkaline metals (Na):
Aseptic (exudative) phlogosis was induced in 48 rabbits by intraocular injection of dextran (1% in saline, 0.1 ml). The various products were administered by instillation in the right eye (RE) of the rabbits, while in the left eye (LE) only vehicle was instilled.
The treament (3 drops every 6 hours) was begun immediately after the injection of dextran and was continued for 16 days.
Both eyes of each rabbit were observed through a slit lamp. In particular the following were examined: the state of the conjunctiva and corneal epithelium, the anterior chamber (presence of Tyndall effect), state of the iris and of the posterior segment of the eye. With a Goldmann lens, the state of the back of the eye was examined. The presence of signs of inflammation (hyperemia, exudate, cloudiness of the liquids, etc.) was recorded.
Values are expressed as percentages (number of eyes without signs of phlogosis out of the total number of eyes treated). In brackets are the number of treated eyes.

horny layer (skin) = experiment: Skin hydration after topical application (corneometer); format: in vivo, human (healthy volunteers); conditions: 0.2% in ointment, single administration, average for 10 subjects
Method: In order to establish a comparison between hyaluronic acid and its derivatives of the present invention, some experiments were carried out to instrumentally evaluate, after topical application, the hydrating properties of the compounds in examination. All the compounds were […] concentration of 0.2% in an ointment the composition of which was as follows: […] Each volunteer was treated (single administration) with all the formulations in examination, which were applied (1 gr./ointment) to the inside surface of each forearm, distinguishing with a dermographic pencil the application zone (about 25 cm^2) of each product and standardizing the procedure as far as possible. To the right forearm were applied the compounds known as […]9, while to the left were applied HYAFF10, placebo and hyaluronic acid. […] Most particularly, the dielectric strength of the water was measured (in 0.8 seconds), after application of the sensor (condenser) to the skin surface. […] Registrations were carried out in constant humidity conditions.

[3] = 10 days from start of phlogosis
[4] = 12 days from start of phlogosis
[5] = 14 days from start of phlogosis
[6] = 16 days from start of phlogosis

(mixed) ethanol and hydrocortisone ester (C21) of hyaluronic acid (HY) [HYC5]
average plasmatic level of hydrocortisone ([1]; 6.5 mg/kg, 30 min): 33.41 ng/mL
average plasmatic level of hydrocortisone ([1]; 6.5 mg/kg, 60 min): 49.52 ng/mL
average plasmatic level of hydrocortisone ([1]; 6.5 mg/kg, 120 min): 60.52 ng/mL
average plasmatic level of hydrocortisone ([1]; 6.5 mg/kg, 180 min): 61.17 ng/mL
average plasmatic level of hydrocortisone ([1]; 6.5 mg/kg, 360 min): 42.44 ng/mL
average plasmatic level of hydrocortisone ([1]; 6.5 mg/kg, 420 min): 30.43 ng/mL
average plasmatic level of hydrocortisone ([1]; 6.5 mg/kg, 480 min): 25.85 ng/mL
average plasmatic level of hydrocortisone ([1]; 13 mg/kg, 30 min): 26.55 ng/mL
average plasmatic level of hydrocortisone ([1]; 13 mg/kg, 60 min): 38.77 ng/mL
average plasmatic level of hydrocortisone ([1]; 13 mg/kg, 120 min): 41.56 ng/mL
average plasmatic level of hydrocortisone ([1]; 13 mg/kg, 180 min): 44.81 ng/mL
average plasmatic level of hydrocortisone ([1]; 13 mg/kg, 300 min): 32.51 ng/mL
average plasmatic level of hydrocortisone ([1]; 13 mg/kg, 360 min): 31.92 ng/mL
average plasmatic level of hydrocortisone ([1]; 13 mg/kg, 420 min): 26.17 ng/mL
average plasmatic level of hydrocortisone ([1]; 13 mg/kg, 480 min): 22.54 ng/mL
Ka [1]: 0.65 h⁻¹
eyes without signs of phlogosis out of the total number of eyes treated ([2]; 2 days from start of phlogosis): 0.0%
eyes without signs of phlogosis out of the total number of eyes treated ([2]; 4 days from start of phlogosis): 0.0%
eyes without signs of phlogosis out of the total number of eyes treated ([2]; 6 days from start of phlogosis): 25.0%
eyes without signs of phlogosis out of the total number of eyes treated ([2]; 8 days from start of phlogosis): 50.0%
eyes without signs of phlogosis out of the total number of eyes treated [2, 3]: 50.0%
eyes without signs of phlogosis out of the total number of eyes treated [2, 4]: 100.0%
eyes without signs of phlogosis out of the total number of eyes treated [2, 5]: 100.0%
eyes without signs of phlogosis out of the total number of eyes treated [2, 6]: 100.0%
antiinflammatory activity (in words) ([2]; compared with the corresponding cortisones): most efficient of these derivatives

(partial and mixed) ethanol and hydrocortisone ester (LC21) of hyaluronic acid (HY) [HYC8]
average plasmatic level of hydrocortisone ([1]; 6.5 mg/kg, 30 min): 33.75 ng/mL
average plasmatic level of hydrocortisone ([1]; 6.5 mg/kg, 60 min): 45.23 ng/mL
average plasmatic level of hydrocortisone ([1]; 6.5 mg/kg, 120 min): 44.75 ng/mL
average plasmatic level of hydrocortisone ([1]; 6.5 mg/kg, 180 min): 41.80 ng/mL
average plasmatic level of hydrocortisone ([1]; 6.5 mg/kg, 300 min): 30.00 ng/mL
average plasmatic level of hydrocortisone ([1]; 6.5 mg/kg, 360 min): 26.10 ng/mL
average plasmatic level of hydrocortisone ([1]; 6.5 mg/kg, 420 min): 20.50 ng/mL
average plasmatic level of hydrocortisone ([1]; 6.5 mg/kg, 480 min): 17.60 ng/mL
average plasmatic level of hydrocortisone ([1]; 13 mg/kg, 30 min): 34.62 ng/mL
average plasmatic level of hydrocortisone ([1]; 13 mg/kg, 60 min): 51.69 ng/mL
average plasmatic level of hydrocortisone ([1]; 13 mg/kg, 120 min): 108.01 ng/mL
average plasmatic level of hydrocortisone ([1]; 13 mg/kg, 180 min): 76.64 ng/mL
average plasmatic level of hydrocortisone ([1]; 13 mg/kg, 300 min): 54.66 ng/mL
average plasmatic level of hydrocortisone ([1]; 13 mg/kg, 360 min): 47.17 ng/mL
average plasmatic level of hydrocortisone ([1]; 13 mg/kg, 420 min): 42.60 ng/mL
average plasmatic level of hydrocortisone ([1]; 13 mg/kg, 480 min): 37.03 ng/mL
Ka [1]: 0.94 h⁻¹
eyes without signs of phlogosis out of the total number of eyes treated ([2]; 2 days from start of phlogosis): 0.0%
eyes without signs of phlogosis out of the total number of eyes treated ([2]; 4 days from start of phlogosis): 0.0%
eyes without signs of phlogosis out of the total number of eyes treated ([2]; 6 days from start of phlogosis): 0.0%
eyes without signs of phlogosis out of the total number of eyes treated ([2]; 8 days from start of phlogosis): 25.0%
eyes without signs of phlogosis out of the total number of eyes treated [2, 3]: 50.0%
eyes without signs of phlogosis out of the total number of eyes treated [2, 4]: 100.0%
eyes without signs of phlogosis out of the total number of eyes treated [2, 5]: 100.0%
eyes without signs of phlogosis out of the total number of eyes treated [2, 6]: 100.0%

(partial) butyl ester of hyaluronic acid (HY) [HYAFF10]
x Δ% degree of hydration of the corneal layer, 1st hr (horny layer (skin)): 68.8%
x Δ% degree of hydration of the corneal layer, 3rd hr (horny layer (skin)): 57.0%
x Δ% degree of hydration of the corneal layer, 6th hr (horny layer (skin)): 27.5%
x Δ% degree of hydration of the corneal layer, 24th hr (horny layer (skin)): 8.3%

(partial) hydrocortisone ester (C21) of hyaluronic acid (HY) [HYC2]
average plasmatic level of hydrocortisone ([1]; 6.5 mg/kg, 30 min): 27.02 ng/mL
average plasmatic level of hydrocortisone ([1]; 6.5 mg/kg, 60 min): 35.67 ng/mL
average plasmatic level of hydrocortisone ([1]; 6.5 mg/kg, 120 min): 42.32 ng/mL
average plasmatic level of hydrocortisone ([1]; 6.5 mg/kg, 180 min): 37.35 ng/mL
average plasmatic level of hydrocortisone ([1]; 6.5 mg/kg, 300 min): 32.27 ng/mL
average plasmatic level of hydrocortisone ([1]; 6.5 mg/kg, 360 min): 26.96 ng/mL
average plasmatic level of hydrocortisone ([1]; 6.5 mg/kg, 420 min): 24.24 ng/mL
average plasmatic level of hydrocortisone ([1]; 6.5 mg/kg, 480 min): 18.92 ng/mL
average plasmatic level of hydrocortisone ([1]; 13 mg/kg, 30 min): 32.32 ng/mL
average plasmatic level of hydrocortisone ([1]; 13 mg/kg, 60 min): 50.51 ng/mL
average plasmatic level of hydrocortisone ([1]; 13 mg/kg, 120 min): 62.42 ng/mL
average plasmatic level of hydrocortisone ([1]; 13 mg/kg, 180 min): 58.44 ng/mL
average plasmatic level of hydrocortisone ([1]; 13 mg/kg, 300 min): 51.68 ng/mL
average plasmatic level of hydrocortisone ([1]; 13 mg/kg, 360 min): 48.17 ng/mL
average plasmatic level of hydrocortisone ([1]; 13 mg/kg, 420 min): 44.67 ng/mL
average plasmatic level of hydrocortisone ([1]; 13 mg/kg, 480 min): 39.41 ng/mL
Ka [1]: 0.86 h⁻¹
eyes without signs of phlogosis out of the total number of eyes treated ([2]; 2 days from start of phlogosis): 0.0%
eyes without signs of phlogosis out of the total number of eyes treated ([2]; 4 days from start of phlogosis): 0.0%
eyes without signs of phlogosis out of the total number of eyes treated ([2]; 6 days from start of phlogosis): 0.0%
eyes without signs of phlogosis out of the total number of eyes treated ([2]; 8 days from start of phlogosis): 25.0%
eyes without signs of phlogosis out of the total number of eyes treated [2, 3]: 50.0%
eyes without signs of phlogosis out of the total number of eyes treated [2, 4]: 100.0%
eyes without signs of phlogosis out of the total number of eyes treated [2, 5]: 100.0%
eyes without signs of phlogosis out of the total number of eyes treated [2, 6]: 100.0%

HYALURONIC ACID [reference compound]
x Δ% degree of hydration of the corneal layer, 1st hr (horny layer (skin)): 54.7%
x Δ% degree of hydration of the corneal layer, 3rd hr (horny layer (skin)): 37.6%
x Δ% degree of hydration of the corneal layer, 6th hr (horny layer (skin)): 19.7%
x Δ% degree of hydration of the corneal layer, 24th hr (horny layer (skin)): 5.3%

benzylester of hyaluronic acid (HY) [HYAFF11]
solubility in DMSO: 200 mg/mL
